Results: patent US20220306986A1, “NON-INVASIVE METHODS FOR SELECTIVELY ENRICHING PLURIPOTENT CELLS” (MEMORIAL SLOAN-KETTERING CANCER CENTER, priority 2019, published 2022)

B1: GCSF: granulocyte colony-stimulating factor, activates the chimeric LIF receptor transgene (protein, UniProt P09919 31-207, looked up)
Granulocyte …: TPLGPASSLPQSFLLKCLEQVRKIQGDGAALQEKLVSECATYKLCHPEELVLLGHSLGIPWAPLSSCPSQALQLAGCLSQLHSGLFLYQGLLQALEGISPELGPTLDTLQLDVADFATTIWQQMEELGMAPALQPTQGAMPAFASAFQRRAGGVLVASHLQSFLEVSYRVLRHLAQP

Tests used:
Format in all cases: cell-based, mouse
ESCs = assay: Colony formation assay (alkaline phosphatase staining) after pulse treatment; conditions: during transient glutamine withdrawal and in the presence of exogenous glutamine; FIG. 7H, 7I
Protocol: For transient glutamine withdrawal (“pulse”) experiments, cells were initially plated in standard S/L medium as described above. The following day, cells were washed with PBS and then changed to experimental medium containing a 1:1 mix of glutamine-free DMEM and glutamine-free Neurobasal medium including 10% dialyzed FBS, 2-mercaptoethanol, LIF, and containing (“Ctrl”) or lacking (“Pulse”) L-glutamine as indicated. 24 hours later, cells were washed with PBS and then returned to glutamine-replete medium (“Recover”). 24 hours later, cells were subjected to either image analysis, flow cytometry, or plated for colony formation assays as indicated. For glutamine pulse experiments in human ESCs, cells were initially plated at a density of 300,000 cells/well in a tissue-culture treated polystyrene 12-well plate coated with vitronectin (Thermo Fisher Scientific, A14700) in E8 medium (Thermo Fisher Scientific, A1517001) containing 10 uM ROCK inhibitor Y-27632 (Selleck Chemicals S1049). 24 hrs after plating, medium was changed to modified E8 medium containing: DMEM high glucose without glutamine (Thermo Fisher 11960044), 10.7 mg/L Transferrin (Sigma T0665), 64 mg/L L-Ascorbic Acid (Sigma A890), 14 ug/L Sodium Selenite (Sigma S5261), 543 mg/L Sodium Bicarbonate (Research Products International 144558), 19.4 mg/L insulin (Sigma 19278), 100 ug/L bFGF (EMD Millipore GF003AF), 2 ug/L TGFβ1 (Peprotech 10021), and 2 mM L-glutamine. After 24 hrs of culture in modified E8 medium, medium was changed to modified E8 medium containing 2 mM or 0 mM L-glutamine for 24 hrs. All cells were then changed to modified E8 medium containing 2 mM L-glutamine and cultured for 24 hrs before harvest for analysis. […] For ESC colony formation assays, colonies were scored manually in a blinded fashion. For reprogramming experiments, alkaline-phosphatase colonies were scored automatically using ImageJ (NIH). Briefly, images of each well were binarized using the Default function and particles greater than 8 pixels with a circularity of 0.7-1.0 were counted.

[1] = test system: Stat3 target gene Tfcp2l1 and key transcription factors associated with naïve pluripotency; assay: qRT-PCR of STAT3-target genes and other key pluripotency genes; conditions: ESCs expressing GCSF-activated LIF receptor; FIG. 5B
Protocol: RNA was isolated from six-well plates using Trizol (Invitrogen) according to manufacturer instructions. 200 ng RNA was used for cDNA synthesis using iScript (BioRad). Quantitative real-time PCR analysis was performed in technical triplicate using QuantStudio 7 Flex (Applied Biosystems) with Power SYBR Green (Life Technologies). All data were generated using cDNA from triplicate wells for each condition. Actin was used as an endogenous control for all experiments. The following primers were used: […]

JAK/STAT3 signaling = assay: Immunoblot of phospho-STAT3 and total STAT3; conditions: ESCs expressing chimeric GCSF-responsive LIF receptor; FIG. 5A
Protocol: Protein lysates were extracted in 1× radioimmunoprecipitation assay buffer (Cell Signaling Technology), separated by SDS—polyacrylamide gel electrophoresis and transferred to nitrocellulose membranes (Bio-Rad). Membranes were blocked in 3% milk in Tris-buffered saline with 0.1% Tween20 (TBST) and incubated at 4° C. with primary antibodies overnight. After TBST washes the next day, membranes were incubated with horseradish peroxidase-conjugated secondary antibodies for 2 h, incubated with enhanced chemiluminescence (Thermo Fisher Scientific) and imaged with an SRX-101A X-ray Film Processor (Konica Minolta). The antibodies used (at 1:1,000 unless otherwise stated) were: Nanog (catalogue no. AF2729; R&D Systems); KLF4 (catalogue no. ab129473; Abcam), phospho-Stat3 (catalogue no. 9138; Cell Signaling Technology); Stat3 (124146, catalogue no. 9139; Cell Signaling Technology), and α-Tubulin (1:10,000, catalogue no. 79026; Sigma-Aldrich).

[2] = test system: ESCs expressing the G-CSF-activated LIF receptor transgene; assay: GC-MS isotope tracing of [U-13C]glucose or [U-13C]glutamine
Protocol: Steady state TCA cycle metabolite measurements. Cells were seeded in standard S/L medium in 6-well plates. 24 hours later, cells were washed with PBS and changed into experimental medium containing a 1:1 mix of glutamine-free DMEM and glutamine-free Neurobasal medium including 10% dialyzed FBS, 2-mercaptoethanol, LIF, and 2 mM L-glutamine. The next day, cells were washed with PBS and subjected to the same experimental medium either with or without 2 mM glutamine. 8 hours later, metabolites were extracted with 1 mL ice-cold 80% methanol containing 2 μM deuterated 2-hydroxyglutarate (D-2-hydroxyglutaric-2,3,3,4,4-d5 acid, d5-2HG) as an internal standard. After overnight incubation at −80° C., lysates were harvested and centrifuged at 21,000 g for 20 minutes to remove protein. Extracts were dried in an evaporator (Genevac EZ-2 Elite) and resuspended by incubating at 30° C. for 2 hours in 50 μL of 40 mg/mL methoxyamine hydrochloride in pyridine. Metabolites were further derivatized by addition of 80 μL of MSTFA+1% TCMS (Thermo Scientific) and 70 μl ethyl acetate (Sigma) and then incubated at 37° C. for 30 minutes. Samples were analyzed using an Agilent 7890A GC coupled to Agilent 5977C mass selective detector. The GC was operated in splitless mode with constant helium gas flow at 1 mL/min. 1 μl of derivatized metabolites was injected onto an HP-5MS column and the GC oven temperature ramped from 60° C. to 290° C. over 25 minutes. Peaks representing compounds of interest were extracted and integrated using MassHunter software (Agilent Technologies) and then normalized to both the internal standard (d5-2HG) peak area and protein content of duplicate samples as determined by BCA protein assay (Thermo Scientific). Ions used for quantification of metabolite levels are as follows: d5-2HG m/z 354; αKG, m/z 304; aspartate, m/z 334; citrate, m/z 465; fumarate, m/z 245; glutamate, m/z 363; malate, m/z 335 and succinate, m/z 247. All peaks were manually inspected and verified relative to known spectra for each metabolite.
Isotope tracing studies. For isotope tracing studies, cells were seeded in standard S/L medium in 6-well plates. 24 hours later, cells were washed with PBS and changed into experimental medium containing a 1:1 mix of glutamine-free DMEM and glutamine-free Neurobasal medium including 10% dialyzed FBS, 2-mercaptoethanol, LIF, and 2 mM L-glutamine. […] Enrichment of ^13C was assessed by quantifying the abundance of the following ions: aKG, m/z 304-318; aspartate, m/z 334-346; citrate, m/z 465-482; fumarate, m/z 245-254; glutamate, m/z 363-377 and malate, m/z 335-347. […]

Molecule	ESC self-renewal (Nanog-GFP, colony formation) (ESCs)	expression of Tfcp2l1 and naïve pluripotency transcription factors [1]	JAK/STAT3 signaling (phospho-STAT3) (JAK/STAT3 signaling)	intracellular pools of glutamate when deprived of exogenous glutamine ([2]; [U-13C]glucose, 4 h glutamine withdrawal, FIG. 5C)	fraction of TCA cycle metabolites derived from oxidative decarboxylation of glucose-derived pyruvate (m+2 isotopologues) ([2]; [U-13C]glucose, FIG. 1B)	fraction of metabolites derived from glutamine catabolism ([2]; [U-13C]glutamine, FIG. 1D)	fraction of glutamate derived from glutamine ([2]; [U-13C]glutamine, control ESCs more than 80%, FIG. 1D) [%]
CCOC(=O)CCNc1cc(N2CCc3ccccc3CC2)nc(-c2ccccn2)n1 [GSK-J4]	impaired ESC self-renewal						
B1		enhancing expression	elevated and sustained JAK/STAT3 signaling	able to use glucose and other anaplerotic substrates to maintain intracellular pools of glutamate	increased	decreased	60
